Source: publication PMC2118261

Experiments:
[1] = target: human CD1d loaded with α-galactosylceramide, biotinylated (human) (UniProt P15813); assay: SPR
[2] = target: mouse CD1d loaded with α-galactosylceramide, biotinylated (for SPR) (mouse) (UniProt P11609); assay: SPR
Chain of UniProt P11609 (P11609 22-336): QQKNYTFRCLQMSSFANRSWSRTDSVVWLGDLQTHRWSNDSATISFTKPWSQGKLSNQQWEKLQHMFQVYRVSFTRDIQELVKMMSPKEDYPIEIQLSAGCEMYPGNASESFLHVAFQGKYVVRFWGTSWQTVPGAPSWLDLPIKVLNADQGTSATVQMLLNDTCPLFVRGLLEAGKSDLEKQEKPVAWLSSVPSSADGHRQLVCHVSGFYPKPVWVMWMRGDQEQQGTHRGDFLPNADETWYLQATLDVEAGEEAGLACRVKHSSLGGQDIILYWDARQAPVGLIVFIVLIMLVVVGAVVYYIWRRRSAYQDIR

Chain of UniProt P15813 (P15813 20-335): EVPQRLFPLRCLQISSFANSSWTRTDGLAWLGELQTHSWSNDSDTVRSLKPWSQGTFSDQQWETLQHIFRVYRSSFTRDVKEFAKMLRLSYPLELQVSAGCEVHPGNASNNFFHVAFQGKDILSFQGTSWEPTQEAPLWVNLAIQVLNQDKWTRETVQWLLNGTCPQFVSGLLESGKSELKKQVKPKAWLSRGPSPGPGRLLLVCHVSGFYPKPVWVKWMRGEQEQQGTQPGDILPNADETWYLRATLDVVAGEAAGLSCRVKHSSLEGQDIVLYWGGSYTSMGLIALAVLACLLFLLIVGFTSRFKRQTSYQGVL

| Substance | Kd [1] [µM] | Kd [2] [µM] | fold lower affinity than NKT15 [1] [fold] | fold lower affinity than NKT15 [2] [fold] |
| --- | --- | --- | --- | --- |
| NKT15 TCR (human semi-invariant NKT cell αβ T cell receptor, soluble extracellular domains) | 10 | 20 | – | – |
| NKT15α-chain/NKT15 β-chain engrafted with the LC13 CDR3β-loop (TCR) | – | – | 5 to 10 | 5 to 10 |
